In PMC3472523 (2012):
Positions of bridges follow the written chain, without caps; N, C: chain ends. fluorescein = fluorescein, an N-terminal fluorescent label

T1: Mcl-1 (Mus musculus, UniProt P97287)
T1 chain: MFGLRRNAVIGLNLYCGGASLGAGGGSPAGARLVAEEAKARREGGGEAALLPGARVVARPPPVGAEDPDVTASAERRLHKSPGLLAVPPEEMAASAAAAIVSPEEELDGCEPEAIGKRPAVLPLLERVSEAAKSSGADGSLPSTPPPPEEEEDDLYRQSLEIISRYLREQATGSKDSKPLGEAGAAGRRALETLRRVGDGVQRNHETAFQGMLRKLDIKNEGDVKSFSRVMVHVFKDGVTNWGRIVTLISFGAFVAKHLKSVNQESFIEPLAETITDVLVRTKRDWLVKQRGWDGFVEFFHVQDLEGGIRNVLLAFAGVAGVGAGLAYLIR


target: Bcl-xL (Homo sapiens, UniProt Q07817); assay: fluorescence polarization
Sequence (Q07817 whole entry): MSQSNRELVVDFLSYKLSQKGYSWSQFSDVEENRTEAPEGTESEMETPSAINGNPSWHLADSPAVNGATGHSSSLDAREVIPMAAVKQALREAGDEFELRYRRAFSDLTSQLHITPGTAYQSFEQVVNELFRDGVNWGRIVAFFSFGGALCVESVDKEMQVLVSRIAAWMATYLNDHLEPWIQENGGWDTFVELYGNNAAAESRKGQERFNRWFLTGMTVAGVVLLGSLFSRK

Kd	Binder
> 1000 nM	fluorescein-AACLRRIGDCVNLRQKLLN-NH2 (linker 3-10 via biphenyl) [Fl-1 (Bph-cross-linked Noxa peptide 1)]

Target: T1, Mcl-1
Assay: competitive fluorescence polarization

Binder	Ki
AACLRAIGDCVNLAQALLN (HELM PEPTIDE1{[ac].A.A.[dC].L.R.A.I.G.D.C.V.N.L.A.Q.A.L.L.N.[am]}|CHEM1{[c1cc(-c2ccc(C[*:2])cc2)ccc1C[*:1]]}$PEPTIDE1,CHEM1,4:R3-1:R1|PEPTIDE1,CHEM1,11:R3-1:R2$$$V2.0; SMILES CC[C@H](C)[C@@H]1NC(=O)[C@H](C)NC(=O)[C@H](CCCNC(=N)N)NC(=O)[C@H](CC(C)C)NC(=O)[C@H](NC(=O)[C@H](C)NC(=O)[C@H](C)NC(C)=O)CSCc2ccc(cc2)-c2ccc(cc2)CSC[C@@H](C(=O)N[C@H](C(=O)N[C@@H](CC(N)=O)C(=O)N[C@@H](CC(C)C)C(=O)N[C@@H](C)C(=O)N[C@@H](CCC(N)=O)C(=O)N[C@@H](C)C(=O)N[C@@H](CC(C)C)C(=O)N[C@@H](CC(C)C)C(=O)N[C@@H](CC(N)=O)C(N)=O)C(C)C)NC(=O)[C@H](CC(=O)O)NC(=O)CNC1=O) [Noxa peptide 5]	29 nM
AACLRRIGDCVNLRQKLLN (HELM PEPTIDE1{[COC(=O)[*:2]].[meA].A.[dC].L.R.R.I.G.D.C.V.N.L.R.Q.K.L.L.N.[am]}|CHEM1{[c1cc(-c2ccc(C[*:2])cc2)ccc1C[*:1]]}$PEPTIDE1,CHEM1,4:R3-1:R1|PEPTIDE1,CHEM1,11:R3-1:R2$$$V2.0; SMILES CC[C@H](C)[C@@H]1NC(=O)[C@H](CCCNC(=N)N)NC(=O)[C@H](CCCNC(=N)N)NC(=O)[C@H](CC(C)C)NC(=O)[C@H](NC(=O)[C@H](C)NC(=O)[C@H](C)N(C)C(=O)OC)CSCc2ccc(cc2)-c2ccc(cc2)CSC[C@@H](C(=O)N[C@H](C(=O)N[C@@H](CC(N)=O)C(=O)N[C@@H](CC(C)C)C(=O)N[C@@H](CCCNC(=N)N)C(=O)N[C@@H](CCC(N)=O)C(=O)N[C@@H](CCCCN)C(=O)N[C@@H](CC(C)C)C(=O)N[C@@H](CC(C)C)C(=O)N[C@@H](CC(N)=O)C(N)=O)C(C)C)NC(=O)[C@H](CC(=O)O)NC(=O)CNC1=O) [Noxa peptide 6]	32 nM
AACLRRIGDCVNLRQKLLN (HELM PEPTIDE1{[ac].A.A.[dC].L.R.R.I.G.D.C.V.N.L.R.Q.K.L.L.N.[am]}|CHEM1{[c1cc(-c2ccc(C[*:2])cc2)ccc1C[*:1]]}$PEPTIDE1,CHEM1,4:R3-1:R1|PEPTIDE1,CHEM1,11:R3-1:R2$$$V2.0; SMILES CC[C@H](C)[C@@H]1NC(=O)[C@H](CCCNC(=N)N)NC(=O)[C@H](CCCNC(=N)N)NC(=O)[C@H](CC(C)C)NC(=O)[C@H](NC(=O)[C@H](C)NC(=O)[C@H](C)NC(C)=O)CSCc2ccc(cc2)-c2ccc(cc2)CSC[C@@H](C(=O)N[C@H](C(=O)N[C@@H](CC(N)=O)C(=O)N[C@@H](CC(C)C)C(=O)N[C@@H](CCCNC(=N)N)C(=O)N[C@@H](CCC(N)=O)C(=O)N[C@@H](CCCCN)C(=O)N[C@@H](CC(C)C)C(=O)N[C@@H](CC(C)C)C(=O)N[C@@H](CC(N)=O)C(N)=O)C(C)C)NC(=O)[C@H](CC(=O)O)NC(=O)CNC1=O) [Noxa peptide 2]	54 nM

More lines, now with the values ahead:

Ki	Binder
28 nM	AACLRAIGDCVNLAQKLLN (HELM PEPTIDE1{[ac].A.A.[dC].L.R.A.I.G.D.C.V.N.L.A.Q.K.L.L.N.[am]}|CHEM1{[c1cc(-c2ccc(C[*:2])cc2)ccc1C[*:1]]}$PEPTIDE1,CHEM1,4:R3-1:R1|PEPTIDE1,CHEM1,11:R3-1:R2$$$V2.0; SMILES CC[C@H](C)[C@@H]1NC(=O)[C@H](C)NC(=O)[C@H](CCCNC(=N)N)NC(=O)[C@H](CC(C)C)NC(=O)[C@H](NC(=O)[C@H](C)NC(=O)[C@H](C)NC(C)=O)CSCc2ccc(cc2)-c2ccc(cc2)CSC[C@@H](C(=O)N[C@H](C(=O)N[C@@H](CC(N)=O)C(=O)N[C@@H](CC(C)C)C(=O)N[C@@H](C)C(=O)N[C@@H](CCC(N)=O)C(=O)N[C@@H](CCCCN)C(=O)N[C@@H](CC(C)C)C(=O)N[C@@H](CC(C)C)C(=O)N[C@@H](CC(N)=O)C(N)=O)C(C)C)NC(=O)[C@H](CC(=O)O)NC(=O)CNC1=O) [Noxa peptide 4]
10 nM	AACLRRIGDCVNLRQKLLN (HELM PEPTIDE1{[ac].A.A.C.L.R.R.I.G.D.C.V.N.L.R.Q.K.L.L.N.[am]}|CHEM1{[c1cc(-c2ccc(C[*:2])cc2)ccc1C[*:1]]}$PEPTIDE1,CHEM1,4:R3-1:R1|PEPTIDE1,CHEM1,11:R3-1:R2$$$V2.0; SMILES CC[C@H](C)[C@@H]1NC(=O)[C@H](CCCNC(=N)N)NC(=O)[C@H](CCCNC(=N)N)NC(=O)[C@H](CC(C)C)NC(=O)[C@@H](NC(=O)[C@H](C)NC(=O)[C@H](C)NC(C)=O)CSCc2ccc(cc2)-c2ccc(cc2)CSC[C@@H](C(=O)N[C@H](C(=O)N[C@@H](CC(N)=O)C(=O)N[C@@H](CC(C)C)C(=O)N[C@@H](CCCNC(=N)N)C(=O)N[C@@H](CCC(N)=O)C(=O)N[C@@H](CCCCN)C(=O)N[C@@H](CC(C)C)C(=O)N[C@@H](CC(C)C)C(=O)N[C@@H](CC(N)=O)C(N)=O)C(C)C)NC(=O)[C@H](CC(=O)O)NC(=O)CNC1=O) [Noxa peptide 1]
23 nM	AACLRAIGDCVNLRQKLLN (HELM PEPTIDE1{[ac].A.A.[dC].L.R.A.I.G.D.C.V.N.L.R.Q.K.L.L.N.[am]}|CHEM1{[c1cc(-c2ccc(C[*:2])cc2)ccc1C[*:1]]}$PEPTIDE1,CHEM1,4:R3-1:R1|PEPTIDE1,CHEM1,11:R3-1:R2$$$V2.0; SMILES CC[C@H](C)[C@@H]1NC(=O)[C@H](C)NC(=O)[C@H](CCCNC(=N)N)NC(=O)[C@H](CC(C)C)NC(=O)[C@H](NC(=O)[C@H](C)NC(=O)[C@H](C)NC(C)=O)CSCc2ccc(cc2)-c2ccc(cc2)CSC[C@@H](C(=O)N[C@H](C(=O)N[C@@H](CC(N)=O)C(=O)N[C@@H](CC(C)C)C(=O)N[C@@H](CCCNC(=N)N)C(=O)N[C@@H](CCC(N)=O)C(=O)N[C@@H](CCCCN)C(=O)N[C@@H](CC(C)C)C(=O)N[C@@H](CC(C)C)C(=O)N[C@@H](CC(N)=O)C(N)=O)C(C)C)NC(=O)[C@H](CC(=O)O)NC(=O)CNC1=O) [Noxa peptide 3]
22 nM	AACLRRIGDCVNLRQKLLN (HELM PEPTIDE1{[COC(=O)[*:2]].[meA].[meA].[dC].L.R.R.I.G.D.C.V.N.L.R.Q.K.L.L.N.[am]}|CHEM1{[c1cc(-c2ccc(C[*:2])cc2)ccc1C[*:1]]}$PEPTIDE1,CHEM1,4:R3-1:R1|PEPTIDE1,CHEM1,11:R3-1:R2$$$V2.0; SMILES CC[C@H](C)[C@@H]1NC(=O)[C@H](CCCNC(=N)N)NC(=O)[C@H](CCCNC(=N)N)NC(=O)[C@H](CC(C)C)NC(=O)[C@H](NC(=O)[C@H](C)N(C)C(=O)[C@H](C)N(C)C(=O)OC)CSCc2ccc(cc2)-c2ccc(cc2)CSC[C@@H](C(=O)N[C@H](C(=O)N[C@@H](CC(N)=O)C(=O)N[C@@H](CC(C)C)C(=O)N[C@@H](CCCNC(=N)N)C(=O)N[C@@H](CCC(N)=O)C(=O)N[C@@H](CCCCN)C(=O)N[C@@H](CC(C)C)C(=O)N[C@@H](CC(C)C)C(=O)N[C@@H](CC(N)=O)C(N)=O)C(C)C)NC(=O)[C@H](CC(=O)O)NC(=O)CNC1=O) [Noxa peptide 7]
22 nM	AACLRAIGDCVNLAQALLN (HELM PEPTIDE1{[COC(=O)[*:2]].[meA].[meA].[dC].L.R.A.I.G.D.C.V.N.L.A.Q.A.L.L.N.[am]}|CHEM1{[c1cc(-c2ccc(C[*:2])cc2)ccc1C[*:1]]}$PEPTIDE1,CHEM1,4:R3-1:R1|PEPTIDE1,CHEM1,11:R3-1:R2$$$V2.0; SMILES CC[C@H](C)[C@@H]1NC(=O)[C@H](C)NC(=O)[C@H](CCCNC(=N)N)NC(=O)[C@H](CC(C)C)NC(=O)[C@H](NC(=O)[C@H](C)N(C)C(=O)[C@H](C)N(C)C(=O)OC)CSCc2ccc(cc2)-c2ccc(cc2)CSC[C@@H](C(=O)N[C@H](C(=O)N[C@@H](CC(N)=O)C(=O)N[C@@H](CC(C)C)C(=O)N[C@@H](C)C(=O)N[C@@H](CCC(N)=O)C(=O)N[C@@H](C)C(=O)N[C@@H](CC(C)C)C(=O)N[C@@H](CC(C)C)C(=O)N[C@@H](CC(N)=O)C(N)=O)C(C)C)NC(=O)[C@H](CC(=O)O)NC(=O)CNC1=O) [Noxa peptide 8]
